We go through four molecules from patent publication US20180057604A1 (Genentech, published 2018).

In assay [1] the target is T1, human TfR extracellular domain with N-terminal His tag (human, UniProt P02786 89-760).
T1 construct: Biotinylated in some assays; also called huTfR; HuTfR
The experiment in a line: SPR, Fab.
Target sequence in this assay (P02786 89-760 G142S): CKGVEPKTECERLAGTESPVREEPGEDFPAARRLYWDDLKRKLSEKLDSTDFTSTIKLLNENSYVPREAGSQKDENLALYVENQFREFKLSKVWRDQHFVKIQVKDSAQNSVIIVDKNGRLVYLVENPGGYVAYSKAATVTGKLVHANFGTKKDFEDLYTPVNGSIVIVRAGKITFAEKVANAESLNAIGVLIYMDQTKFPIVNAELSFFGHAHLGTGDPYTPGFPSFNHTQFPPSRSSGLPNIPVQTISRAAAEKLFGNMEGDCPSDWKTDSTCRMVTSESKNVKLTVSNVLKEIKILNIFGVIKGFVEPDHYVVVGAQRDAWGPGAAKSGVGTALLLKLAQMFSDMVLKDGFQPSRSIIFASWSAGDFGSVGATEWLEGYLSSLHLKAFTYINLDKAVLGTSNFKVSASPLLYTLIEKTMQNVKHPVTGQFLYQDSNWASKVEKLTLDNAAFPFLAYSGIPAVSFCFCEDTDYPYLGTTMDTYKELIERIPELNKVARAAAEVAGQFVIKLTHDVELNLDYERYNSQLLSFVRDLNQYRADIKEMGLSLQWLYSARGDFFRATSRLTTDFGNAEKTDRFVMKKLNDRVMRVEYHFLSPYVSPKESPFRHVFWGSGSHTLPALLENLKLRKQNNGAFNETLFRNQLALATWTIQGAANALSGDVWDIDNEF
Protocol: (§1) Antibody affinities were measured using surface plasmon resonance (“SPR”) (Biacore™, GE Healthcare). Anti-His antibody (Qiagen) was coupled onto four different flow cells of a BIACORE™ CM5 sensor chip (Biacore, Inc., Piscataway, N.J.) at between 6000 and 8000 RU. Immobilization was achieved by random coupling through amino groups using a protocol provided by the manufacturer. 10×HBS-P (Biacore, Inc., Piscataway, N.J.) was diluted in water and served as the dilution and running buffer. Purified human or cyno TfR was captured, followed by a 3-fold dilution series of IgG or Fab that was injected at a flow rate of 30 ml/min using the single cycle kinetics method. Affinity constants were determined using a simple 1:1 Langmuir binding model or using a steady state model when kₒₙ or koff was beyond the detection limit. The equilibrium dissociation constant (KD) was calculated as the ratio of association rate constant (kₒₙ) and dissociation rate constant (koff).
(§2) These variants were screened as IgG by ELISA and SPR to identify positions important for binding to human and cyno TfR; the monovalent affinity of selected variants as Fab was also determined. […] Plates were washed with PBS/0.05% Tween 20 and blocked using Superblock blocking buffer in PBS (Thermo Scientific, Hudson, N.H.). Supernatants containing expressed IgG were diluted serially 1:5 and added to the plate for 1 h. […] Plates were washed with PBS/0.05% Tween 20 and 1:1000 diluted HRP-Goat-anti kappa (Southern Biotech) was added the plate and incubated for 1 h at room temperature. Plates were washed with PBS/0.05% Tween 20 and detected using TMB substrate (BioFX Laboratories, Owings Mills). Binding was also assessed by SPR, as described above.

For assay [2], the target named is T2, cyno TfR extracellular domain (analogous construct to human TfR ecd) (cynomolgus monkey, UniProt Q5RDH6 87-760 (Pongo abelii entry)).
T2 construct: also called cynoTfR ecd
T2 chain: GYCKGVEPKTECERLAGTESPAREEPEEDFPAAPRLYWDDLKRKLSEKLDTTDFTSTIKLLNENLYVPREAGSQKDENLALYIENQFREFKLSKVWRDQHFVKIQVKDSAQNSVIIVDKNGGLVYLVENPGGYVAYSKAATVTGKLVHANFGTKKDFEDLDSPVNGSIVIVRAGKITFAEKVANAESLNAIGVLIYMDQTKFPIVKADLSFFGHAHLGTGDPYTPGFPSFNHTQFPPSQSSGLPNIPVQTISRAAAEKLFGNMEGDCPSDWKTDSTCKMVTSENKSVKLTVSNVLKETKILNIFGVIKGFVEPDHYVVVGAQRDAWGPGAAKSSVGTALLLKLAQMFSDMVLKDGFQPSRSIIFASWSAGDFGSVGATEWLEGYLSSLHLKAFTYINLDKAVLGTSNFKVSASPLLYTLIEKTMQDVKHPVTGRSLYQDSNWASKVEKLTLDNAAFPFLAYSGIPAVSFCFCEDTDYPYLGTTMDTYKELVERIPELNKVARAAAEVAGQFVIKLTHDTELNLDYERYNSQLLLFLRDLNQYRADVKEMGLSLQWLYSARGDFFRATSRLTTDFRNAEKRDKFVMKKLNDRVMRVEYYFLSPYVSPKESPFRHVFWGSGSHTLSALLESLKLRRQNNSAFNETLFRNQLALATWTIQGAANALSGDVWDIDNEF
The experiment in a line: SPR, Fab. On the technique in general: SPR reads the build-up and loss of mass on a sensor chip optically.
Protocol: as §1, §2

In assay [3] the target is T2, cyno TfR extracellular domain …. Briefly: SPR, KD on cyno TfR over KD on human TfR.
Protocol: as §1
(§3) In both cases, the SPR experiments were performed as described above.
For assay [4] the target is unchanged. Briefly: SPR, KD on cyno TfR over KD on human TfR.
Protocol: as §1, §3
For assay [5] the target is unchanged. The experiment in a line: SPR, KD on cyno TfR over KD on human TfR.
Assay [6] has as its target T1, human TfR extracellular domain with …. Briefly: SPR, TfR captured by anti-His, Fab injected.
Protocol: as §1, §3
Assay [7] concerns the target T2, cyno TfR extracellular domain …. Briefly: SPR, TfR captured by anti-His, Fab injected.
Protocol: as §1, §3
Assay [8] concerns the target T1, human TfR extracellular domain with …. The experiment in a line: SPR, TfR captured by anti-His, Fab injected. The source holds these as a separate data set.
Target sequence in this assay (P02786 89-760 G142S): as the sequence (P02786 89-760 G142S) above
Protocol: as §1, §3
The target of assay [9] is T2, cyno TfR extracellular domain …. Briefly: SPR, TfR captured by anti-His, Fab injected.
Protocol: as §1, §3
Assay [10] has as its target T1, human TfR extracellular domain with …. The experiment in a line: SPR, TfR captured by anti-His, Fab injected. This is another data set of the same source.
Protocol: as §1
In assay [11] the target is T2, cyno TfR extracellular domain …. The experiment in a line: SPR, TfR captured by anti-His, Fab injected.
Protocol: as §1
The target of assay [12] is T1, human TfR extracellular domain with …. The experiment in a line: SPR, IgG.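 Further: His-tagged TfR captured via immobilized anti-His antibody on a CM5 chip, antibody injected in 3-fold dilution series by single cycle kinetics, 1:1 Langmuir or steady-state fit.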
Target sequence in this assay (P02786 89-760 G142S): as the sequence (P02786 89-760 G142S) above
Protocol: as §1, §3
Assay [13] concerns the target T2, cyno TfR extracellular domain …. The experiment in a line: SPR, IgG.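 Further: His-tagged TfR captured via immobilized anti-His antibody on a CM5 chip, antibody injected in 3-fold dilution series by single cycle kinetics, 1:1 Langmuir or steady-state fit.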
Protocol: as §1, §3
Assay [14] concerns the target T1, human TfR extracellular domain with …. Briefly: ELISA, IgG. Background: ELISA stands for enzyme-linked immunosorbent assay.
Target sequence in this assay (P02786 89-760 G142S): as the sequence (P02786 89-760 G142S) above
Protocol: (§4) Affinity variants were generated by making individual alanine substitutions in CDR-L3 or CDR-H3 using standard techniques. These variants were screened as IgG by ELISA and SPR to identify positions important for binding to human and cyno TfR; the monovalent affinity of selected variants as Fab was also determined. […] Plates were washed with PBS/0.05% Tween 20 and blocked using Superblock blocking buffer in PBS (Thermo Scientific, Hudson, N.H.). Supernatants containing expressed IgG were diluted serially 1:5 and added to the plate for 1 h. […] Plates were washed with PBS/0.05% Tween 20 and 1:1000 diluted HRP-Goat-anti kappa (Southern Biotech) was added the plate and incubated for 1 h at room temperature. Plates were washed with PBS/0.05% Tween 20 and detected using TMB substrate (BioFX Laboratories, Owings Mills).
Assay [15] deals with T2, cyno TfR extracellular domain …. Briefly: ELISA, IgG.
Protocol: as §4
The target of assay [16] is T1, human TfR extracellular domain with …. The experiment in a line: SPR SCK 1:1 fit, IgG.
Target sequence in this assay (P02786 89-760 G142S): as the sequence (P02786 89-760 G142S) above
Protocol: as §1, §2
In assay [17] the target is T2, cyno TfR extracellular domain …. Briefly: SPR SCK 1:1 fit, IgG.
Protocol: as §1, §2
Assay [18] concerns the target T1, human TfR extracellular domain with …. Briefly: ELISA, TfR-coated plate, IgG.
Protocol: (§5) The Hu/Cy binding ELISA was performed in maxisorp plates coated with 2 μg/ml of purified human or cyno TfR in PBS at 4° C. overnight. Plates were washed with PBS/0.05% Tween 20 and blocked using Superblock blocking buffer in PBS (Thermo Scientific, Hudson, N.H.). Cell culture supernatants containing the expressed Ala scan variant IgGs were serially diluted 1:5 and added to the wells for 1 h. Plates were washed with PBS/0.05% Tween 20 and 1:1000 diluted HRP-Goat-anti human Fcγ (Jackson ImmunoResearch) was added the plate and incubated for 1 hour at room temperature. Plates were washed with PBS/0.05% Tween 20 and detected using TMB substrate (BioFX Laboratories, Owings Mills).
The target in assay [19] is T2, cyno TfR extracellular domain …. Briefly: ELISA, TfR-coated plate, IgG.
Protocol: as §5
The target of assay [20] is T1, human TfR extracellular domain with …. Briefly: ELISA, immobilized huTfR, with and without 6.3 uM holo-Tf.
Protocol: Plates were washed with PBS/0.05% Tween 20 and blocked using Superblock blocking buffer in PBS (Thermo Scientific, Hudson, N.H.). […] Plates were washed with PBS/0.05% Tween 20 and 1:1000 diluted HRP-Goat-anti human Fcγ (Jackson ImmunoResearch) was added to the plate and incubated for 1 h at room temperature. Plates were washed with PBS/0.05% Tween 20 and detected using TMB substrate (BioFX Laboratories, Owings Mills).
Assay [21] shares this target. The experiment in a line: SPR, biotinylated TfR on streptavidin, bispecific injected.
Protocol: (§6) Affinity of the bispecific antibodies for human and cynomolgus monkey TfR was determined using surface plasmon resonance (SPR) (Biacore™, GE Healthcare). Streptavidin (Sigma) was coupled onto four different flow cells of a series S BIACORE™ CM5 sensor chip (Biacore, Inc., Piscataway, N.J.) at between 2000 and 3000 RU. Immobilization was achieved by random coupling through amino groups using a protocol provided by the manufacturer. 10×HBS-P (Biacore, Inc., Piscataway, N.J.) was diluted in water and served as the dilution and running buffer. Purified and biotin labeled human or cyno TfR was captured, followed by a 3-fold dilution series of bispecific antibody that was injected at a flow rate of 30 ml/min using the single cycle kinetics method. Affinity constants were determined using a simple 1:1 Langmuir binding model or using a steady state model when kₒₙ or koff was beyond the detection limit. The equilibrium dissociation constant (KD) was calculated as the ratio of association rate constant (kon) and dissociation rate constant (koff).
Assay [22] has as its target T2, cyno TfR extracellular domain …. The assay is described as above.
Protocol: as §6
Assay [23] concerns the target TfR (species not stated, Table 15). Briefly: SPR, Fab.

Positions count from the first letter of the chain named. Numbers in names are those of the source. Where “and” joins values, the source holds several entries; their conditions need not be identical. Equal values may be shown once. Read-outs that look alike come from different tables or passages of the source.

B1: Hu15G11.v5.Fab (Fab, V domains shown)
VH: EVQLVQSGAEVKKPGASVKVSCKASGYTFTSYWMHWVRQAPGQRLEWIGEINPTNGRTNYIEKFKSRATLTVDKSASTAYMELSSLRSEDTAVYYCARGTRAYHYWGQGTMVTVSS
VL: DIQMTQSPSSLSASVGDRVTITCRASDNLYSNLAWYQQKPGKSPKLLVYDATNLADGVPSRFSGSGSGTDYTLTISSLQPEDFATYYCQHFWGTPLTFGQGTKVEIK
notes: Fab
B1: the Kd – broadly, the free concentration of one partner at which half of the binding sites on the other are occupied at equilibrium, for simple one-to-one binding – in assay [1] came out at 4.7 nM; in assay [2] it was 16 nM; in [6], 4.7 nM. The Cy/hu ratio was 3.4 in assay [3] and 4 in [4]. The Cyno/human ratio in assay [5] worked out at 4. Besides, the koff (as a rule, a measure of how fast the partners let go of each other) is 0.00406 s⁻¹ and 0.00364 s⁻¹ in assay [6]; 0.0218 s⁻¹ in assay [7]; 0.00474 s⁻¹ in [8]; 0.0127 s⁻¹ in assay [9]; 0.00474 s⁻¹ in [10]; 0.0127 s⁻¹ in [11]. Moreover, the kon (usually the rate constant with which the complex forms) in [6] was 456000 M⁻¹ s⁻¹ and 776000 M⁻¹ s⁻¹; in [7] it was 1.41e+06 M⁻¹ s⁻¹; in [8] it was 674000 M⁻¹ s⁻¹; in [9] it was 451000 M⁻¹ s⁻¹; in [10], 674000 M⁻¹ s⁻¹; in assay [11] it was 451000 M⁻¹ s⁻¹.

B2: hu15G11.v5 IgG (antibody, V domains shown)
VH: B1 VH
VL: B1 VL
notes: Human IgG (detected with anti-human Fc gamma); also called humanized 15G11.v5
Take B2: the Kd in assay [12] turned out to be 3.33 nM; in assay [13] it was 11.8 nM; in assay [16], 3.3 nM; in assay [17], 12 nM. Moreover, the EC50 – broadly, the concentration at which the effect is half-maximal – came out at 16 ng/mL in [14], 20 ng/mL in [15], 0.8 ng/mL in assay [18] and 1.8 ng/mL in assay [19]. Further, the EC50 (read off the curve) (usually the concentration giving half of the maximal effect) in assay [20] was about 5 ng/mL.

B3: Anti-TfR1/6266.hIgG1.N297G (bispecific antibody, V domains shown)
VH 1: B1 VH
VL 1: B1 VL
VH 2: EVQLVQSGAEVKKPGSSVKVSCKASGGTLSGYGVSWVRQAPGQGLEWMGNIIPGFGTANYAQKFQGRVTITADESTSTAYMELSSLRSEDTAVYYCARSGGTKYGMLDVWGQGTMVTVSS
VL 2: EIVMTQSPATLSVSPGERATLSCRASQSVSSNLAWYQQKPGQAPRLLIYGASTRATGIPARFSGSGSGTEFTLTISSLQSEDFAVYYCQQLILWPPRTFGGGTKVEIK
notes: Knob-in-hole human IgG1 with N297G
Take B3: the Kd worked out at 9 nM in assay [21] and 23.7 nM in [22].

B4: Hu15G11.HC52A Fab (Fab, V domains shown)
VH: B1 VH with N52A
VL: B1 VL
notes: Fab; also called antiTfR.52A.Fab; 15G11.52A Fab
Consider B4, for which binding in [23] was characterised by a dissociation constant (Kd) of 55 nM.
